How the values were obtained:
VCAM1-Trx (human) [1] = molecular target: VCAM1-Trx (human) (UniProt P19320); test: SPR (Biacore), immobilisation of VCAM1 not stated
VCAM1-Trx (human) [2] = molecular target: VCAM1-Trx (human) (UniProt P19320); test: SPR (Biacore), synthetic peptide

koff (VCAM1-Trx (human) [1]): 0.1 s⁻¹
kon (VCAM1-Trx (human) [1]): 330000 M⁻¹ s⁻¹
Kd (VCAM1-Trx (human) [2]): 318 nM
Binder: QARDCTGSWTWENGKWTWKGPSICPI [Peptide 1 specific to VCAM1 (bipodal-peptide binder)]

Reference: patent publication US20110152500A1
